Experiments:
[1] = target: BG505.SOSIP CD4bs variants (BG505.SOSIP.D368R, BG505.SOSIP.N279K, BG505.SOSIP.D368R/N279K (DKO)); experiment: ELISA AUC normalized to BG505.SOSIP.backbone
[2] = target: trimeric Env protein (HIV-1 Env gp140 trimer antigens of the panel: ZM197, CNE55, CZA97); experiment: ELISA (AUC) on HIV-1 Env gp140 trimer and gp120 monomer panel

| Binder | fold decrease in binding against BG505.SOSIP Env [1] | binding to trimeric Env protein relative to monomeric Env protein [2] |
| --- | --- | --- |
| 6420-233.1 (antibody, V domains shown) VH: EVQLVESGGALVQPGGSLRLSCAASGFNFISYGMNWVRQAPGKGLEWISYISSASNTIYYADSVKGRFTISRDNAKNSLYLQMTSLRDGDSALYYCARDIVTIFFRGRSQHAFSVWGQGTAVAVSS VL: SYVLTQPPSVSVAPGQTARITCGGNNIGSKNVHWYQQKPGQAPVLVVYDNSDRPSGVPERFSGSNSGNTATLTITRVEAGDEADYYCQVWDISSDHQVFGGGTKLTAL | > 2 fold | – |
| 6420-233.2 (antibody, V domains shown) VH: EVQLVESGGGLVQPGGSLRLSCAASGFDFRTYSMNWVRQAPGKGLEWLSYISSTSATIYSADSVKGRFTISRDNAKNSVYLQMNSLRVDDTAVYFCARERITVFFRGRSQHASNVWGQGTMVTVSS VL: SYVLTQAPSVSVAPGQTARITCGGDNIGNKNAHWYQQKPGQAPVLVVYDNSDRPSGIPERFSGSNSGNTATLTISRVEAGDEADYFCQVWDSSSDHQVFGGGTKLTVL | > 2 fold | – |
| 6420-48.2 (antibody, V domains shown) VH: EVQLVESGGGLVRPGGSLRLSCAASGFTFNTYEMNWVRQAPGKGLEWLSYISSTGNNIFYADSVKGRFTISRDNAKNSLYLQMNNVRTDDTALYYCARGGQLWFGERLNFQHWGQGTQVTVSS VL: DIQMTQSPSSLSASVGDRVTITCRASQTISNNLNWYQQKPGKAPKFLIYSVSVLQSGVPSRFSGSGSGTDFTLTITSLQPEDFATYYCQQSHSTPLTFGQGTRLEIK | > 2 fold | – |
| 4513-11 (antibody, V domains shown) VH: QVQLAQSGAEVKKPGSSVKVSCHVSGGTFSTYAINWVRQAPGHGPEWMGRITPISGATDYAQKFQARITISADESTSAAYLEVRTLRSDDTAVYYCARVGQPKFFERSSDGEHFQHWGQGTLVTVSS VL: DIQMTQSPSTLSASVGDRTTITCRASQNIDKWLAWYQQKPGKAPTVLIFKASTLESGVPSRFSGSSSGTEFTLTIDNLQPEDSATYFCHQYSRYPWTFGQGTKVELK | – | > 3 times |
| 6420-48.1 (antibody, V domains shown) VH: EVQLVESGGGLVQPGGSLRLSCAASGFTFNTYEMNWVRQAPGKGLEWVSYISGTGNNIYYADSVKGRFTISRDNAKNSLYLQMDNLRAEDTAVYYCARGGQLWFGERLYFHFWGQGTLVAVSS VL: DIQMSQSPSSLSASVGDRVTITCRASQSIGNNLNWYQQKPGKAPNLLIYAASNLQSGVPSRFSGSGSGTDFSLTISSLQPEDFTIYYCQQSFSTPITFGQGTRLEIK | > 2 fold | – |
| 4591-2 (antibody, V domains shown) VH: QVQLQQWGAGLLKPSETLSLTCDVSGGSFSDFYWSWVRQSPGKGLEWIGDINHSGSSNYIPSLDGRVTISVDTSRSQFSLNLTSVTAADTAIYFCARKVWPFNGMDVWSQGTTVTVSS VL: ATQLTQSPSFLSASVGDRVTITCRASQGIRNFLAWYQQKPGKAPNLLIYAASTLQSGVPSRFAGSGSGTEFTLTINNVQPEDFATYYCQQLTNYATFGQGTKLEIQ | > 2 fold | – |
| 4487-5 (antibody, V domains shown) VH: QMQLVQSGPEVRKPGSSVKVSCKASGGTFDNSAITWVRQAPGQGLEWMGGIIPFVGAAAYAQRFLGRATITADASTTSSYLELRGLTSDDTGVYFCARDGLRLNFYYYGMDVWGQGTPIIVSS VL: QIVLTQSPGTLSLSPGDTATLSCRASQRVTHTHLAWYQQKPGQPPRLLIYATSQRATGIPDRFRGSGSGRDFTLTIASLEPEDFAVYYCQQNGESPRMFGQGTKLDVK | – | > 3 times |
| 4487-4 (antibody, V domains shown) V domain 1: QVQLVQSGTELTKPGMSVKISCRASGTTFTRPYVHWVRQAPGQGLEWMGMINPTGVNVFSAQKFQGRVTMTRQTSTHTSFLELVSLTGDDTAVYYCATSSGVVSLRSAFDIWGQGTILIVSS V domain 2: QSALSQPASVSGSLGQSITISCSGVGSDAVTYTVVSWYQQHPTKAPKIIISDGDKRPSGVSSRFSGSKSGNTAFLRISGLQTDDEALYYCCSYVGSNTWVFGGGTTVTVL | – | > 3 times |
| 6420-35 (antibody, V domains shown) VH: EVQLVESGGDLVQPGGSLRLSCLGSGFDFRTYGMNWVRQAPGKGLEWVSYISSTSSAIYYTDSIEGRFTISRDNGKNLLSLQMSSLRDEDTAVYYCARGGSLWFGREFHAMDVWGRGTTVTVSS VL: QAVVTQEPSLTVSPGGTVTLTCGSSTGAVTSDHYPYWFQQKPGQAPRTLIYDTINRHSWAPARFSASLLGGKAALTLSGAQPEDEAEYYCLLSYSGARRVFGGGTKLTVL | > 2 fold | – |
| 4513-12 (antibody, V domains shown) VH: QLQLQESGPGLVKPSETLALTCSVSGGSIFSSNYYWAWIRQPPGKGLEWMGSVYFSGTTFYNPSLKSRVIVSVDTAKNQFSLKLNSVSAADTAIYYCARDVRMRSGRPRQYCMDVWGKGTTVTVSS VL: EVVLTQSPGTLSLSPGERATLSCRASQSVNSIYLAWYQQKPGQAPRLLIYGASNRAAGIPDRFSGSGSGTDFTLTIDRLEPEDFAVYYCQQYDTSPAVTFGPGTKVEIK | – | > 3 times |
| 4513-14 (antibody, V domains shown) VH: QVQLVQSGREVKKFGSSVRVSCKASGGSFDTYAISWVRQAPGQGLEWMGQITPMFGTSHMSQRFQGRLTIDTDDSTGTVFMDMRGLRTEDSATYYCAKDWSFDDDGGAYVPSAMDVWGQGTTVIVSS VL: EIVLTQSPGTLSVSPGERATLSCKASQSISSSSLAWYRQTPGQTPTLLIYGTSTRATGIPDRFSGRGSGTDFTLTITNVKPEDFAVYYCQQYGSSPFTFGPGTRLDFR | – | > 3 times |
